Results reported in article PMC9529903, “Structural insights of the elongation factor EF-Tu complexes in protein translation of Mycobacterium tuberculosis” (Communications Biology, 2022).

Legend:
EF-Ts (Escherichia coli) = EF-Ts (Escherichia coli) (UniProt P0A6P1); conditions: cited from earlier work
EF-Tu = target: T1, EF-Tu (Mycobacterium tuberculosis, UniProt P9WNN1); test: biochemical; assay type: binding
T1 construct: gene tuf; full-length

[1] = target: T2, Mycobacterium tuberculosis elongation factor EF-Tu (Mycobacterium tuberculosis, UniProt P9WNN1 1-396); test: ITC; conditions: both partners purified
T2 construct: also called Mtb EF-Tu
T2 sequence (P9WNN1 whole entry): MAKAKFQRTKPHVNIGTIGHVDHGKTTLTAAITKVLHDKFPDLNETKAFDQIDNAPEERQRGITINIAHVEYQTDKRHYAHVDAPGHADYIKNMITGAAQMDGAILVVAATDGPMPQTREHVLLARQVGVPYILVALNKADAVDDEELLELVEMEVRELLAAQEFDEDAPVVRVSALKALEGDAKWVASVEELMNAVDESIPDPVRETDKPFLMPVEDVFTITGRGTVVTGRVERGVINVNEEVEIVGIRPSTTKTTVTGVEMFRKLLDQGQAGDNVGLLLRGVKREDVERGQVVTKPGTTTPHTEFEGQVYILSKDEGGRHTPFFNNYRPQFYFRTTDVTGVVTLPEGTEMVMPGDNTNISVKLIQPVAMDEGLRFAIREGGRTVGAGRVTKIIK

T1 sequence (P9WNN1 whole entry): as above
Chain of EF-Ts (Escherichia coli) (P0A6P1 2-283): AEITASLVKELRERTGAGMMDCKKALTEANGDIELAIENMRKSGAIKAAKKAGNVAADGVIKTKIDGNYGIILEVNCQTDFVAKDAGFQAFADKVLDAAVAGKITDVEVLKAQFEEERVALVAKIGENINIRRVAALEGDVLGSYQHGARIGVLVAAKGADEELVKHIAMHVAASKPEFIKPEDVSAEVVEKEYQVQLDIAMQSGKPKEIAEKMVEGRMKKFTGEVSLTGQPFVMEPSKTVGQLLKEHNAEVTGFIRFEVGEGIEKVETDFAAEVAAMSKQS

EF-Tu (from UniProt P0CE47)
Kd (EF-Ts (Escherichia coli)): 0.002 µM

C=CC(=O)Nc1cc(Nc2nccc(-c3cn(C)c4ccccc34)n2)c(OC)cc1N(C)CCN(C)C [Osimertinib]
Kd (EF-Tu): 207 µM

B1: Mycobacterium tuberculosis elongation factor EF-Ts (natural protein)
chain: MANFTAADVKRLRELTGAGMLACKNALAETDGDFDKAVEALRIKGAKDVGKRAERATAEGLVAAKDGALIELNCETDFVAKNAEFQTLADQVVAAAAAAKPADVDALKGASIGDKTVEQAIAELSAKIGEKLELRRVAIFDGTVEAYLHRRSADLPPAVGVLVEYRGDDAAAAHAVALQIAALRARYLSRDDVPEDIVASERRIAEETARAEGKPEQALPKIVEGRLNGFFKDAVLLEQASVSDNKKTVKALLDVAGVTVTRFVRFEVGQA
notes: also called Mtb EF-Ts
Kd [1]: ~1.36 µM
stoichiometry N [1]: 1
